Assay results from publication PMC4534038, “Plasmodium falciparum Hop (PfHop) Interacts with the Hsp70 Chaperone in a Nucleotide-Dependent Fashion and Exhibits Ligand Selectivity” (PLoS ONE, 2015).

Legend:
[1] = target: T1, Plasmodium falciparum Hsp70-Hsp90 organising protein (PfHop) (Plasmodium falciparum), Q8ILC1; assay: SPR; ProteOn XPR36, GLC chip; PfHop immobilised by amine coupling, PfHop as analyte (125-2000 nM); self-association, step not told; 25 C; PBS-Tween with 20 mM EDTA, pH 7.4; with 5 mM ADP; settings: remark: other sources report otherwise
T1 chain: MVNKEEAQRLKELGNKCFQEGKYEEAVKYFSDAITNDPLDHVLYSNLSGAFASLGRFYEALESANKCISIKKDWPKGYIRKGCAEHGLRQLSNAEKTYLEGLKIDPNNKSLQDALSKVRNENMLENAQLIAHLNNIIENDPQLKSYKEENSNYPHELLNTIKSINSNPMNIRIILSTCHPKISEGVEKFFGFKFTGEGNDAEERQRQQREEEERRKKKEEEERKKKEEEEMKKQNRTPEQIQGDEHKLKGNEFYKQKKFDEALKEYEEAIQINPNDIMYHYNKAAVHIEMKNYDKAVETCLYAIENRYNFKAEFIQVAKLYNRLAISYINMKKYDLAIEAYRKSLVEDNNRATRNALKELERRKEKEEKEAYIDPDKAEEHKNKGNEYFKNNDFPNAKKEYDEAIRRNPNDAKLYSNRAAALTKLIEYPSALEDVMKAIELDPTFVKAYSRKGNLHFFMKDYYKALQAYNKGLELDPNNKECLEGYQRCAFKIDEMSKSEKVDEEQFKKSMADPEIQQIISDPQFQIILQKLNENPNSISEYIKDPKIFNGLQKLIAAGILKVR

[2] = target: T1, Plasmodium falciparum Hsp70-Hsp90 …; assay: SPR; ProteOn XPR36, GLC chip; PfHop immobilised by amine coupling, PfHop as analyte (125-2000 nM); self-association, step not told; 25 C; PBS-Tween with 20 mM EDTA, pH 7.4; no nucleotide; settings: remark: other sources report otherwise
[3] = target: T1, Plasmodium falciparum Hsp70-Hsp90 …; assay: SPR; ProteOn XPR36, GLC chip; PfHop immobilised by amine coupling, PfHop as analyte (125-2000 nM); self-association, step not told; 25 C; PBS-Tween with 20 mM EDTA, pH 7.4; with 5 mM ATP; settings: remark: other sources report otherwise
[4] = target: Plasmodium falciparum Hsp70 (PfHsp70-1), full length, recombinant, his-tagged (Plasmodium falciparum, UniProt Q8IB24 1-677); assay: far-Western, overlay or dot blot; PfHsp70-1 (25, 37.5, 50 μg/mL) resolved by SDS-PAGE, blotted, denatured and renatured with urea (8 M-0 M); overlaid with PfHop in protein-binding buffer (100 mM NaCl, 20 mM Tris pH 7.6, 0.5 mM EDTA, 10% glycerol, 0.1% Tween-20, 2% skim milk, 1 mM DTT) overnight at 4°C; no nucleotide, 5 μM ADP or 5 μM ATP; detected with α-PfHop; settings: both partners purified

B1: Plasmodium falciparum Hsp70-Hsp90 organising protein (PfHop), Q8ILC1 1-564 (natural protein)
chain: T1 chain
- Kd [1]: 7.85 nM
- koff [1]: 0.000464 s⁻¹
- kon [1]: 59100 M⁻¹ s⁻¹
- Kd [2]: 1.57 nM
- koff [2]: 0.000359 s⁻¹
- kon [2]: 228000 M⁻¹ s⁻¹
- Kd [3]: 5.18 nM
- koff [3]: 0.000329 s⁻¹
- kon [3]: 63500 M⁻¹ s⁻¹

B2: Plasmodium falciparum Hsp70-Hsp90 organising protein (PfHop), recombinant, his-tagged (natural protein, UniProt Q8ILC1 1-564, looked up)
chain: T1 chain
- binding result [4]: binds
